Measured values from patent US20060257938A1, “Method of screening for drugs that block ligand binding to a lipid binding protein” (priority 2005, published 2006).

Columns and labels:
Format in all cases: binding
[1] = Probe fluorescence ratio response to oleic acid relative to ADIFAB2; details: response relative to ADIFAB2
Procedure, shortened: (§1)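 Fluorescently labeled rat intestinal FABP variants were read at two emission wavelengths, near the unbound maximum (about 420 to 480 nm) and the FFA-bound maximum (about 495 to 580 nm). R = Fλ1/Fλ2 after subtracting probe-free intensity; ΔR = R+agent − R0, normalized to ADIFAB2 (rI-FABP-L72A).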

[2] = Probe fluorescence ratio response to linolenic acid relative to ADIFAB2; details: response relative to ADIFAB2
Procedure, shortened: as §1

[3] = Probe fluorescence ratio response to palmitic acid relative to ADIFAB2; details: response relative to ADIFAB2
Procedure, shortened: as §1

[4] = Probe fluorescence ratio response to linoleic acid relative to ADIFAB2; details: response relative to ADIFAB2
Procedure, shortened: as §1

[5] = Probe fluorescence ratio response to arachidonic acid relative to ADIFAB2; details: arachidonic acid; response relative to ADIFAB2
Procedure, shortened: as §1

[6] = Probe fluorescence ratio response to stearic acid relative to ADIFAB2; details: response relative to ADIFAB2
Procedure, shortened: as §1

[7] = Probe fluorescence ratio response to palmitoleic acid relative to ADIFAB2; details: response relative to ADIFAB2
Procedure, shortened: as §1

Molecule	DR/DR OA [1]	DR/DR LNA [2]	DR/DR PA [3]	DR/DR LA [4]	DR/DR AA [5]	DR/DR SA [6]	DR/DR POA [7]
14L 31W 117V 72A (protein, listed as Rattus norvegicus, PEPTIDE (1)...(131) wild-type rat intestinal fatty acid binding protein) AFDGTWKVDRNENLEKFMEKMGINVVKRKLWAHDNLKLTITQEGNKFTVKESSNFRNIDVVFELGVDFAYSAADGTELTGTWTMEGNKLVGKFKRVDNGKELIAVREISGNELIQTVTYEGVEAKRIFKKE	1.580	1.894	1.304	2.027	1.972	0.742	1.768
18I 55G 73M 72A (protein, listed as Rattus norvegicus, PEPTIDE (1)...(131) wild-type rat intestinal fatty acid binding protein) AFDGTWKVDRNENYEKFIEKMGINVVKRKLGAHDNLKLTITQEGNKFTVKESSNGRNIDVVFELGVDFAYSAMDGTELTGTWTMEGNKLVGKFKRVDNGKELIAVREISGNELIQTYTYEGVEAKRIFKKE	0.574	1.284	1.137	1.127	0.895	0.360	1.201
18V 31Y 55I 73G 72A (protein, listed as Rattus norvegicus, PEPTIDE (1)...(131) wild-type rat intestinal fatty acid binding protein) AFDGTWKVDRNENYEKFVEKMGINVVKRKLYAHDNLKLTITQEGNKFTVKESSNIRNIDVVFELGVDFAYSAGDGTELTGTWTMEGNKLVGKFKRVDNGKELIAVREISGNELIQTYTYEGVEAKRIFKKE	0.994	1.228	0.780	1.220	1.007	−0.094	1.106
14Q 18S 73I 117W 72A (protein, listed as Rattus norvegicus, PEPTIDE (1)...(131) wild-type rat intestinal fatty acid binding protein) AFDGTWKVDRNENQEKFSEKMGINVVKRKLGAHDNLKLTITQEGNKFTVKESSNFRNIDVVFELGVDFAYSAIDGTELTGTWTMEGNKLVGKFKRVDNGKELIAVREISGNELIQTWTYEGVEAKRIFKKE	0.809	0.894	0.559	0.784	0.878	−0.044	0.834
18G 31F 73L 72A (protein, listed as Rattus norvegicus, PEPTIDE (1)...(131) wild-type rat intestinal fatty acid binding protein) AFDGTWKVDRNENYEKFGEKMGINVVKRKLFAHDNLKLTITQEGNKFTVKESSNFRNIDVVFELGVDFAYSALDGTELTGTWTMEGNKLVGKFKRVDNGKELIAVREISGNELIQTYTYEGVEAKRIFKKE	1.365	1.235	1.025	1.520	1.785	1.690	1.235
14L 18L 31Y 73L 117A 72A (protein, listed as Rattus norvegicus, PEPTIDE (1)...(131) wild-type rat intestinal fatty acid binding protein) AFDGTWKVDRNENLEKFLEKMGINVVKRKLYAHDNLKLTITQEGNKFTVKESSNFRNIDVVFELGVDFAYSALDGTELTGTWTMEGNKLVGKFKRVDNGKELIAVREISGNELIQTATYEGVEAKRIFKKE	1.908	2.818	1.444	2.948	2.987	0.762	2.317
18I 31F 73V 72A (protein, listed as Rattus norvegicus, PEPTIDE (1)...(131) wild-type rat intestinal fatty acid binding protein) AFDGTWKVDRNENYEKFIEKMGINVVKRKLFAHDNLKLTITQEGNKFTVKESSNFRNIDVVFELGVDFAYSAVDGTELTGTWTMEGNKLVGKFKRVDNGKELIAVREISGNELIQTYTYEGVEAKRIFKKE	2.257	2.738	1.893	3.096	2.649	1.294	2.665
104T 115A 74F 72A (protein, listed as Rattus norvegicus, PEPTIDE (1)...(131) wild-type rat intestinal fatty acid binding protein) AFDGTWKVDRNENYEKFMEKMGINVVKRKLGAHDNLKLTITQEGNKFTVKESSNFRNIDVVFELGVDFAYSAAFGTELTGTWTMEGNKLVGKFKRVDNGKELITVREISGNELIATYTYEGVEAKRIFKKE	1.621	2.206	0.720	2.231	2.635	0.877	1.661
18I 31Y 73I 72A (protein, listed as Rattus norvegicus, PEPTIDE (1)...(131) wild-type rat intestinal fatty acid binding protein) AFDGTWKVDRNENYEKFIEKMGINVVKRKLYAHDNLKLTITQEGNKFTVKESSNFRNIDVVFELGVDFAYSAIDGTELTGTWTMEGNKLVGKFKRVDNGKELIAVREISGNELIQTYTYEGVEAKRIFKKE	2.322	2.865	1.825	3.031	2.487	1.310	2.620
18L 73F 117G 72A (protein, listed as Rattus norvegicus, PEPTIDE (1)...(131) wild-type rat intestinal fatty acid binding protein) AFDGTWKVDRNENYEKFLEKMGINVVKRKLGAHDNLKLTITQEGNKFTVKESSNFRNIDVVFELGVDFAYSAFDGTELTGTWTMEGNKLVGKFKRVDNGKELIAVREISGNELIQTGTYEGVEAKRIFKKE	1.908	1.913	1.039	2.283	2.445	0.663	1.731
38M 104S 115A 74F 72A (protein, listed as Rattus norvegicus, PEPTIDE (1)...(131) wild-type rat intestinal fatty acid binding protein) AFDGTWKVDRNENYEKFMEKMGINVVKRKLGAHDNLKMTITQEGNKFTVKESSNFRNIDVVFELGVDFAYSAAFGTELTGTWTMEGNKLVGKFKRVDNGKELISVREISGNELIATYTYEGVEAKRIFKKE	1.155	1.615	0.498	1.778	1.690	0.356	1.172
